Data from patent publication US7385023B1, “Cancer immunotherapy and diagnosis using cytochrome P450 1B1” (Trustees of Boston University, priority 2000, dated 2008).
One block for each molecule: values may come before it. Peptide text beside a SMILES is read from it.

How the values were obtained:
[1] = test system: T2 cells; assay: 51Cr release cytotoxicity assay, peptide-pulsed T2 cells; type: cell-based; settings: for recognition by CYP239-specific CTL of target cells pulsed with heteroclitic peptide: CTL generated against wild type CYP239
[2] = test system: primary follicular lymphoma (FL) cells; assay: 51Cr release cytotoxicity assay, primary follicular lymphoma; type: cell-based, human; settings: HLA-A2+ CYP1B1+ FL, CTL from healthy donors
Description: CYP1B1-specific CTLs were then evaluated for cytotoxicity against primary tumor tissue.

[3] = test system: T cells from HLA-A2+ healthy donors; settings: for healthy donors with peptide-specific T cells detected / expansion: n=8, day 10
[4] = test system: T cells from HLA-A2+ multiple myeloma patients; settings: n=10
[5] = test system: HLA-A2+ ovarian carcinoma cell line 36M
[6] = molecular target: HLA-A*0201 (Homo sapiens, UniProt P04439, D140Y/D185E/D98H/E176V/E277Q/G131W/G231S/I119V/I121R/I166T/I218V/L300P/L318F/N151K/N90K/P208A/P217A/Q86G/Q94H/R138H/R169H/T345S); assay: HLA-A2/peptide complex stability on TAP-deficient T2 cells; type: binding
[7] = test system: CD8+ T cells of HLA-A2+ cancer patients; assay: Ex vivo generation of peptide-specific CTL from cancer patients; type: cell-based, human
From the text: Similar to experiments described for healthy donors, we next attempted to generate CYP1B1-specific CTL from peripheral blood of cancer patients. […] Due to lower numbers of PBMC available, CYP246-specific CTL cultures were only initiated in patients 3 and 4. […] Because autologous tumor cells were not available from these patients, we tested the same FL samples described above as primary tumor targets. CYP239-specific CTL from patient 1 lysed both HLA-A2^+ FL samples but not the HLA-A2^− (18% vs. 0% at an E:T ration of 30:1).

[8] = test system: HLA-A2+ primary ALL cells; assay: 51Cr release cytotoxicity assay, primary ALL; type: cell-based, human
Description: Peptides were pulsed onto TAP-deficient T2 cells, and the maximum binding and the stability over time were assessed by flow cytometry. […] Additional experiments were carried out to characterize these peptides, in particular, CYP190.

[9] = test system: CD8+ T cells of healthy HLA-A2+ donors; assay: Ex vivo generation of peptide-specific CTL from healthy HLA-A2+ donors
[10] = molecular target: T1, HLA-A*0201 on the surface of TAP-deficient T2 cells (human); assay: T2 cell assay of HLA-A*0201/peptide complex stability, flow cytometry
T1 construct: detected with FITC-labeled mAb BB7.2; also called HLA-A2

[11] = molecular target: T1, HLA-A*0201 on the surface of …; assay: T2 cell HLA-A*0201 stabilisation assay, flow cytometry with FITC-BB7.2
[12] = molecular target: T1, HLA-A*0201 on the surface of …; assay: TAP-deficient T2 cell assay, flow cytometry

Molecule: CSCC[C@H](NC(=O)[C@@H](NC(=O)[C@H](CC(=O)O)NC(=O)[C@@H](NC(=O)[C@H](CC(C)C)NC(=O)[C@@H](N)Cc1ccc(O)cc1)C(C)C)C(C)C)C(=O)N1CCC[C@H]1C(=O)N[C@@H](Cc1c[nH]c2ccccc12)C(=O)N[C@H](C(=O)O)C(C)C [CYP239-19] (H-YLVDVMPWV-OH; N-terminus and C-terminus assumed)
recognition by CYP239-specific CTL of target cells pulsed with heteroclitic peptide [1]: equally well

Molecule: CSCC[C@H](NC(=O)[C@@H](NC(=O)[C@H](CC(=O)O)NC(=O)[C@H](Cc1ccc(O)cc1)NC(=O)[C@H](CC(C)C)NC(=O)[C@@H](N)Cc1ccc(O)cc1)C(C)C)C(=O)N1CCC[C@H]1C(=O)N[C@@H](Cc1c[nH]c2ccccc12)C(=O)N[C@H](C(=O)O)C(C)C [CYP239-139] (H-YLYDVMPWV-OH; N-terminus and C-terminus assumed)
recognition by CYP239-specific CTL of target cells pulsed with heteroclitic peptide [1]: do not recognize

Molecule: CSCC[C@H](NC(=O)[C@@H](NC(=O)[C@H](CC(=O)O)NC(=O)[C@@H](NC(=O)[C@H](CC(C)C)NC(=O)[C@@H](N)CO)C(C)C)C(C)C)C(=O)N1CCC[C@H]1C(=O)N[C@@H](Cc1c[nH]c2ccccc12)C(=O)N[C@@H](CC(C)C)C(=O)O [CYP239] (H-SLVDVMPWL-OH)
cytotoxicity for HLA-A2+ FL by peptide-specific CTL [2]: cytotoxic
healthy donors with peptide-specific T cells detected / expansion [3]: No expansion
patients with reactive T cells >0.05% on day 10 [4]: 4
cytotoxicity against 36M by peptide-specific CTL [5]: specific cytotoxicity

Molecule: CC(C)C[C@H](NC(=O)[C@@H](N)Cc1c[nH]c2ccccc12)C(=O)N[C@@H](CCC(N)=O)C(=O)N[C@@H](Cc1ccc(O)cc1)C(=O)N[C@@H](Cc1ccccc1)C(=O)N1CCC[C@H]1C(=O)N[C@@H](CC(N)=O)C(=O)N1CCC[C@H]1C(=O)N[C@H](C(=O)O)C(C)C [CYP246] (H-WLQYFPNPV-OH; N-terminus and C-terminus assumed)
cytotoxicity for HLA-A2+ FL by peptide-specific CTL [2]: cytotoxic
highest level of peptide-specific T cells in one healthy donor ([3]; day 10): 0.5%
healthy donors with peptide-specific T cells detected / expansion [3]: 2
patients with reactive T cells >0.05% on day 10 [4]: 5
cytotoxicity against 36M by peptide-specific CTL [5]: specific cytotoxicity

HLA-A2/peptide complex stability [6]: longest half-life on the cell surface
time after peptide withdrawal at which peptide/A2 complexes can be detected [6]: ≥ 24 h
Molecule: FLDPRPLTV [CYP190]
generation of peptide-specific CTL from cancer patients [7]: can be generated from HLA-A2^+ cancer patients
lysis of peptide-pulsed T2 cells by peptide-specific CTL ([1]; CTL from healthy donors): can lyse
lysis of HLA-A2+ primary ALL cells by peptide-specific CTL [8]: can lyse
generation of peptide-specific CTL from normal donors [9]: can be generated from normal HLA-A2^+ donors

T2 assay result at 0 h post-pulsing [10]: 2
T2 assay result at 2 h post-pulsing [10]: 1.51
T2 assay result at 4 h post-pulsing [10]: 1.24
T2 assay result at 6 h post-pulsing [10]: 1.16
T2 assay result at 24 h post-pulsing [10]: 0.73
B1: CYP239-139 heteroclitic peptide (YLYDVMPWV) (peptide)
peptide: YLYDVMPWV
notes: Designed variant of CYP239 changed at positions 1, 3 and 9

T2 assay result at 0 h post-pulsing [10]: 2.16
T2 assay result at 2 h post-pulsing [10]: 1.57
T2 assay result at 4 h post-pulsing [10]: 1.31
T2 assay result at 6 h post-pulsing [10]: 1.13
T2 assay result at 24 h post-pulsing [10]: 0.72
B2: CYP239-19 heteroclitic peptide (YLVDVMPWV) (peptide)
peptide: YLVDVMPWV
notes: Designed variant of CYP239 changed at positions 1 and 9

Binding affinity [FI] (fluorescence index) [11]: 3.4
Molecule: WLQYFPNPV [CYP246 peptide from cytochrome P450 1B1 (WLQYFPNPV)]

T2 assay result at 0 h post-pulsing [10]: 1.91
T2 assay result at 2 h post-pulsing [10]: 1.37
T2 assay result at 4 h post-pulsing [10]: 0.78
T2 assay result at 6 h post-pulsing [10]: 0.58
T2 assay result at 24 h post-pulsing [10]: 0.12
Binding affinity [FI] (fluorescence index) [11]: 3.8
B3: CYP239 peptide from cytochrome P450 1B1 (SLVDVMPWL) (peptide)
peptide: SLVDVMPWL
notes: Synthetic peptide bought from Sigma Genosys

binding result [12]: binds
Molecule: FLDPRPLTV [CYP190 peptide from cytochrome P450 1B1 (FLDPRPLTV)]
